Experimental data as given in patent publication US6861508B2, “Transcriptional intermediary factor-2” (Institut National de la Sante et de la Recherche Medicale, priority 1996, dated 2005).

How the values were obtained:
GAL4 reporter = test: GAL4 DBD-TIF2 fusion CAT reporter transactivation assay; format: cell-based; details: Cos-1 and/or HeLa cells
Method in brief: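 Transiently transfected HeLa and Cos-1 cells received plasmids (3 μg; 1-10 μg in titration) expressing TIF2 regions or mutants fused to GAL4 DBD(1-147), plus 1 μg (17m)5-G-CAT reporter. CAT activity measured by TLC phosphoimaging or CAT ELISA, normalized to cotransfected β-galactosidase, expressed as fold over GAL4 DBD alone; mean of ≥3 experiments.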

[1] = target: T1, GST-hERα(DEF) (pGEX2T-hERα(DEF), amino acids 282-595) (human, UniProt P03372 282-595); test: GST pull-down with 35S in-vitro-translated TIF2 polypeptides, with or without 10^-6 M estradiol
T1 construct: range 282-595; Bacterially produced; also used 32P-labelled as Far-Western probe; also called GST-ER; GST-ER(DEF); not shown: glutathione-S-transferase (GST) of pGEX2T (Pharmacia)
T1 sequence (looked up): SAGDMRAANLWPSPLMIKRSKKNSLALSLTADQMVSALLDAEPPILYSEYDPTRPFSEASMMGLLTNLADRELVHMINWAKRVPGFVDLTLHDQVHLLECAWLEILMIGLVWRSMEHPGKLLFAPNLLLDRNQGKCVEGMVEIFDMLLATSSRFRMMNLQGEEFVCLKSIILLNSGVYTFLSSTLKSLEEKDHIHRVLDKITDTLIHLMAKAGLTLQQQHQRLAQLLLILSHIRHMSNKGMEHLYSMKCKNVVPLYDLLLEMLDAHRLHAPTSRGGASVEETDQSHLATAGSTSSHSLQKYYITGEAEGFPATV

binding result [1]: no binding
B1: TIF2.2 (TIF2 amino acids 1288-1464) (other)
chain: NPRIPQANAQQFPFPPNYGISQQPDPGFTGATTPQSPLMSPRMAHTQSPMMQQSQANPAYQAPSDINGWAQGNMGGNSMFSQQSPPHFGQQANTSMYSNNMNINVSMATNTGGMSSMNQMTGQISMTSVTSVSTSGLSSMGPEQVNDPALRGGNLFPNQLPGMDMIKQEGDTTRKYC
notes: In-vitro-translated; also called AD2
transcriptional activation of GAL4 reporter by GAL4 DBD fusion (GAL4 reporter): able to activate transcription
